Test results reported in patent US20230322953A1 (HARBOUR BIOMED SHANGHAI, published 2023).

T1: human BCMA (human, UniProt Q02223 1-184)
T1 construct: whole, on cells; also called hBCMA; TNFRSF17
T1 sequence (looked up): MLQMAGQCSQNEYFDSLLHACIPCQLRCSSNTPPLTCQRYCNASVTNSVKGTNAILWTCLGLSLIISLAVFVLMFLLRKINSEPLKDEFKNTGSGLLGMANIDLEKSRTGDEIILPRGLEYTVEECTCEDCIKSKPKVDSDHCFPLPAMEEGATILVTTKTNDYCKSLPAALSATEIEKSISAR


biological target: T1, human BCMA; assay: FACS on NCI-H929 cells

Row | Binder | EC50 [nM] | Maximum MFI
1 | PR000274 (antibody, human IgG1, kappa, V domains shown, also called Positive control 1; CA8-J6M0) VH: QVQLVQSGAEVKKPGSSVKVSCKASGGTFSNYWMHWVRQAPGQGLEWMGATYRGHSDTYYNQKFKGRVTITADKSTSTAYMELSSLRSEDTAVYYCARGAIYDGYDVLDNWGQGTLVTVSS VL: DIQMTQSPSSLSASVGDRVTITCSASQDISNYLNWYQQKPGKAPKLLIYYTSNLHSGVPSRFSGSGSGTDFTLTISSLQPEDFATYYCQQYRKLPWTFGQGTKLEIKR | 28.9 | –
2 | PR003879 (bispecific antibody, human IgG1, lambda, L234A L235A, BCMAxCD3, Fab-Fc-VH (structure 11); CD3 Fab of PR003886, BCMA VH of PR004574; IgG1 knob/hole, LALA) light: QAVVTQEPSLTVSPGGTVTLTCRSSTGAVTTSNYANWVQQKPGQAPRGLIGGTNKRAPWTPARFSGSLLGDKAALTLLGAQPEDEAEYFCALWYSNLWVFGGGTKLTVLGQPKAAPSVTLFPPSSEELQANKATLVCLISDFYPGAVTVAWKADSSPVKAGVETTTPSKQSNNKYAASSYLSLTPEQWKSHRSYSCQVTHEGSTVEKTVAPTECS heavy: not shown EVQLVETGGGLIQPGGSLRLSCAASGFTVSDAYMTWVRQAPGKGLEWVSVIFSGGRTYYSDSVKGRFTISRDNAKNTLYLQMNSLRAEDTALYYCARRNYDQTRGTDVFDIWGQGTMVTVSSASEPKSSDKTHTCPPCPAPEAAGGPSVFLFPPKPKDTLMISRTPEVTCVVVDVSHEDPEVKFNWYVDGVEVHNAKTKPREEQYNSTYRVVSVLTVLHQDWLNGKEYKCKVSNKALPAPIEKTISKAKGQPREPQVCTLPPSREEMTKNQVSLSCAVKGFYPSDIAVEWESNGQPENNYKTTPPVLDSDGSFFLVSKLTVDKSRWQQGNVFSCSVMHEALHNHYTQKSLSLSPGK | 2.1 | 10800
3 | PR002300 (bispecific antibody, human IgG1, lambda, L234A L235A, BCMAxCD3, Fab-Fc-VH(2) (structure 14); CD3 Fab of PR001848, two BCMA VH of PR000940, linker RT-GS_15-KL; IgG1 knob/hole, AAG) light: QAVVTQEPSLTVSPGGTVTLTCRSSTGAVTTSNYANWVQQKPGQAPRGLIGGTNKRAPWTPARFSGSLLGDKAALTLLGAQPEDEAEYFCALWYSNLWVFGGGTKLTVLGQPKAAPSVTLFPPSSEELQANKATLVCLISDFYPGAVTVAWKADSSPVKAGVETTTPSKQSNNKYAASSYLSLTPEQWKSHRSYSCQVTHEGSTVEKTVAPTECS heavy: EVQLLESGGGLVQPGGSLRLSCAASGFTFSTYAMNWVRQAPGKGLEWVSRIRSKYNNYATYYADSVKDRFTISRDDSKSTLYLQMNSLRAEDTAVYYCVRHGNFGNSYVSWFAYWGQGTLVTVSSASTKGPSVFPLAPSSKSTSGGTAALGCLVKDYFPEPVTVSWNSGALTSGVHTFPAVLQSSGLYSLSSVVTVPSSSLGTQTYICNVNHKPSNTKVDKKVEPKSCDKTHTCPPCPAPEAAGGPSVFLFPPKPKDTLMISRTPEVTCVVVDVSHEDPEVKFNWYVDGVEVHNAKTKPREEQYNSTYRVVSVLTVLHQDWLNGKEYKCKVSNKALGAPIEKTISKAKGQPREPQVYTLPPCREEMTKNQVSLWCLVKGFYPSDIAVEWESNGQPENNYKTTPPVLDSDGSFFLYSKLTVDKSRWQQGNVFSCSVMHEALHNHYTQKSLSLSPGK EVQLLESGGGLVQPGGSLRLSCAASGFTFSSYAMIWVRQAPGKGLEWVSGISESGGSTYYADSVKGRFTISRDNSKNTLYLQMNSLRAEDTAVYFCVKDLDDILTGYYKDYWGQGTLVTVSSRTGGGGSGGGGSGGGGSKLEVQLLESGGGLVQPGGSLRLSCAASGFTFSSYAMIWVRQAPGKGLEWVSGISESGGSTYYADSVKGRFTISRDNSKNTLYLQMNSLRAEDTAVYFCVKDLDDILTGYYKDYWGQGTLVTVSSASEPKSSDKTHTCPPCPAPEAAGGPSVFLFPPKPKDTLMISRTPEVTCVVVDVSHEDPEVKFNWYVDGVEVHNAKTKPREEQYNSTYRVVSVLTVLHQDWLNGKEYKCKVSNKALGAPIEKTISKAKGQPREPQVCTLPPSREEMTKNQVSLSCAVKGFYPSDIAVEWESNGQPENNYKTTPPVLDSDGSFFLVSKLTVDKSRWQQGNVFSCSVMHEALHNHYTQKSLSLSPGK | – | 44200
4 | PR002299 (bispecific antibody, human IgG1, lambda, L234A L235A, BCMAxCD3, Fab-Fc-VH(2) (structure 14); CD3 Fab of PR001848, two BCMA VH of PR000940, linker RT-GS_5-KL; IgG1 knob/hole, AAG) light: QAVVTQEPSLTVSPGGTVTLTCRSSTGAVTTSNYANWVQQKPGQAPRGLIGGTNKRAPWTPARFSGSLLGDKAALTLLGAQPEDEAEYFCALWYSNLWVFGGGTKLTVLGQPKAAPSVTLFPPSSEELQANKATLVCLISDFYPGAVTVAWKADSSPVKAGVETTTPSKQSNNKYAASSYLSLTPEQWKSHRSYSCQVTHEGSTVEKTVAPTECS heavy: EVQLLESGGGLVQPGGSLRLSCAASGFTFSTYAMNWVRQAPGKGLEWVSRIRSKYNNYATYYADSVKDRFTISRDDSKSTLYLQMNSLRAEDTAVYYCVRHGNFGNSYVSWFAYWGQGTLVTVSSASTKGPSVFPLAPSSKSTSGGTAALGCLVKDYFPEPVTVSWNSGALTSGVHTFPAVLQSSGLYSLSSVVTVPSSSLGTQTYICNVNHKPSNTKVDKKVEPKSCDKTHTCPPCPAPEAAGGPSVFLFPPKPKDTLMISRTPEVTCVVVDVSHEDPEVKFNWYVDGVEVHNAKTKPREEQYNSTYRVVSVLTVLHQDWLNGKEYKCKVSNKALGAPIEKTISKAKGQPREPQVYTLPPCREEMTKNQVSLWCLVKGFYPSDIAVEWESNGQPENNYKTTPPVLDSDGSFFLYSKLTVDKSRWQQGNVFSCSVMHEALHNHYTQKSLSLSPGK EVQLLESGGGLVQPGGSLRLSCAASGFTFSSYAMIWVRQAPGKGLEWVSGISESGGSTYYADSVKGRFTISRDNSKNTLYLQMNSLRAEDTAVYFCVKDLDDILTGYYKDYWGQGTLVTVSSRTGGGGSKLEVQLLESGGGLVQPGGSLRLSCAASGFTFSSYAMIWVRQAPGKGLEWVSGISESGGSTYYADSVKGRFTISRDNSKNTLYLQMNSLRAEDTAVYFCVKDLDDILTGYYKDYWGQGTLVTVSSASEPKSSDKTHTCPPCPAPEAAGGPSVFLFPPKPKDTLMISRTPEVTCVVVDVSHEDPEVKFNWYVDGVEVHNAKTKPREEQYNSTYRVVSVLTVLHQDWLNGKEYKCKVSNKALGAPIEKTISKAKGQPREPQVCTLPPSREEMTKNQVSLSCAVKGFYPSDIAVEWESNGQPENNYKTTPPVLDSDGSFFLVSKLTVDKSRWQQGNVFSCSVMHEALHNHYTQKSLSLSPGK | – | 32800
5 | PR003880 (bispecific antibody, human IgG1, lambda, L234A L235A, BCMAxCD3, Fab-Fc-VH (structure 11); CD3 Fab of PR003886, BCMA VH of PR004560; IgG1 knob/hole, LALA) light: QAVVTQEPSLTVSPGGTVTLTCRSSTGAVTTSNYANWVQQKPGQAPRGLIGGTNKRAPWTPARFSGSLLGDKAALTLLGAQPEDEAEYFCALWYSNLWVFGGGTKLTVLGQPKAAPSVTLFPPSSEELQANKATLVCLISDFYPGAVTVAWKADSSPVKAGVETTTPSKQSNNKYAASSYLSLTPEQWKSHRSYSCQVTHEGSTVEKTVAPTECS heavy: not shown EVQLVETGGGLIQPGGSLRLSCAASGFTVSDAYMTWVRQAPGKGLEWVSVIFSGGNTYVSDSVKGRFTISRDNAKNTLYLQMNSLRAEDTALYYCARRNYDQTRGTDVFDIWGQGTMVTVSSASEPKSSDKTHTCPPCPAPEAAGGPSVFLFPPKPKDTLMISRTPEVTCVVVDVSHEDPEVKFNWYVDGVEVHNAKTKPREEQYNSTYRVVSVLTVLHQDWLNGKEYKCKVSNKALPAPIEKTISKAKGQPREPQVCTLPPSREEMTKNQVSLSCAVKGFYPSDIAVEWESNGQPENNYKTTPPVLDSDGSFFLVSKLTVDKSRWQQGNVFSCSVMHEALHNHYTQKSLSLSPGK | 5.6 | 8660
6 | PR002332 (bispecific antibody, human IgG1, lambda, L234A L235A, BCMAxCD3, Fab-Fc-VH'-VH'' (structure 15); IgG1 knob/hole, AAG) light: QAVVTQEPSLTVSPGGTVTLTCRSSTGAVTTSNYANWVQQKPGQAPRGLIGGTNKRAPWTPARFSGSLLGDKAALTLLGAQPEDEAEYFCALWYSNLWVFGGGTKLTVLGQPKAAPSVTLFPPSSEELQANKATLVCLISDFYPGAVTVAWKADSSPVKAGVETTTPSKQSNNKYAASSYLSLTPEQWKSHRSYSCQVTHEGSTVEKTVAPTECS heavy: EVQLLESGGGLVQPGGSLRLSCAASGFTFSTYAMNWVRQAPGKGLEWVSRIRSKYNNYATYYADSVKDRFTISRDDSKSTLYLQMNSLRAEDTAVYYCVRHGNFGNSYVSWFAYWGQGTLVTVSSASTKGPSVFPLAPSSKSTSGGTAALGCLVKDYFPEPVTVSWNSGALTSGVHTFPAVLQSSGLYSLSSVVTVPSSSLGTQTYICNVNHKPSNTKVDKKVEPKSCDKTHTCPPCPAPEAAGGPSVFLFPPKPKDTLMISRTPEVTCVVVDVSHEDPEVKFNWYVDGVEVHNAKTKPREEQYNSTYRVVSVLTVLHQDWLNGKEYKCKVSNKALGAPIEKTISKAKGQPREPQVYTLPPCREEMTKNQVSLWCLVKGFYPSDIAVEWESNGQPENNYKTTPPVLDSDGSFFLYSKLTVDKSRWQQGNVFSCSVMHEALHNHYTQKSLSLSPGK EVQLVETGGGLIQPGGSLRLSCAASGFTVSDNYMTWVRQAPGKGLEWVSVIFSGGNTYYADSVKGRFTISRDNAKNTLYLQMNSLRAEDTALYYCARRNYDDTRGTDVFDIWGQGTMVTVSSRTGGGGSGGGGSGGGGSKLEVQLVETGGGLIQPGGSLRLSCAASGFTVSSNYMTWVRQAPGKGLEWVSVIFSGGSTYYADSVKGRFTISRDNSKNTLYLQMNSLRAEDTAVYYCARRIAVAGHDVFDIWGQGTMVTVSSASEPKSSDKTHTCPPCPAPEAAGGPSVFLFPPKPKDTLMISRTPEVTCVVVDVSHEDPEVKFNWYVDGVEVHNAKTKPREEQYNSTYRVVSVLTVLHQDWLNGKEYKCKVSNKALGAPIEKTISKAKGQPREPQVCTLPPSREEMTKNQVSLSCAVKGFYPSDIAVEWESNGQPENNYKTTPPVLDSDGSFFLVSKLTVDKSRWQQGNVFSCSVMHEALHNHYTQKSLSLSPGK | 9 | 84500
7 | PR003882 (bispecific antibody, human IgG1, lambda, L234A L235A, BCMAxCD3, Fab-Fc-VH (structure 11); CD3 Fab of PR003886, BCMA VH of PR004562; IgG1 knob/hole, LALA) light: QAVVTQEPSLTVSPGGTVTLTCRSSTGAVTTSNYANWVQQKPGQAPRGLIGGTNKRAPWTPARFSGSLLGDKAALTLLGAQPEDEAEYFCALWYSNLWVFGGGTKLTVLGQPKAAPSVTLFPPSSEELQANKATLVCLISDFYPGAVTVAWKADSSPVKAGVETTTPSKQSNNKYAASSYLSLTPEQWKSHRSYSCQVTHEGSTVEKTVAPTECS heavy: not shown EVQLVETGGGLIQPGGSLRLSCAASGFTVSDSYMTWVRQAPGKGLEWVSVIFSGGKTYYSDSVKGRFTISRDNAKNTLYLQMNSLRAEDTALYYCARRNYDQTLGTDVFDIWGQGTMVTVSSASEPKSSDKTHTCPPCPAPEAAGGPSVFLFPPKPKDTLMISRTPEVTCVVVDVSHEDPEVKFNWYVDGVEVHNAKTKPREEQYNSTYRVVSVLTVLHQDWLNGKEYKCKVSNKALPAPIEKTISKAKGQPREPQVCTLPPSREEMTKNQVSLSCAVKGFYPSDIAVEWESNGQPENNYKTTPPVLDSDGSFFLVSKLTVDKSRWQQGNVFSCSVMHEALHNHYTQKSLSLSPGK | 1.8 | 11100
